From US20240067748A1 (NONA BIOSCIENCES SUZHOU, published 2024)

Tests used:
[1] = target: T1, human TROP2 protein (Sino Biological, #10428-H08H) (human, UniProt P09758 27-274); assay: BLI, Octet RED96, AHC sensor
T1 construct: bought protein; also called human Trop2 protein antigen (His tag); not shown: His tag
T1 sequence (looked up): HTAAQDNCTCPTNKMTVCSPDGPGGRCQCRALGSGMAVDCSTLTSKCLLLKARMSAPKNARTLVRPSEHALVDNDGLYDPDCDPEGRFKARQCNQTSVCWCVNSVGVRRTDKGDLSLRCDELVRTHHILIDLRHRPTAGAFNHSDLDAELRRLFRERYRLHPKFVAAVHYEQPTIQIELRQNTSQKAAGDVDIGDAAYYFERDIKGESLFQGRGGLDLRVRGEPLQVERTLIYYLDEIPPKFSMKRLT
Outline: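 Sensor loaded w/ 200 nM Trop2 (human or monkey), PBS pH 7.4 + 0.1% BSA + 0.02% Tween 20. Ab 40 nM, assoc 3 min / dissoc 5 min, 30° C. Real-time binding fit for KD, kon, koff.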

[2] = target: T2, monkey Trop2 protein (Sino Biological, #90893-C08H) (monkey, UniProt A0A2K5UE71 27-274); assay: BLI, Octet RED96, AHC sensor
T2 construct: bought protein; also called monkey Trop2 protein antigen (His tag)
T2 sequence: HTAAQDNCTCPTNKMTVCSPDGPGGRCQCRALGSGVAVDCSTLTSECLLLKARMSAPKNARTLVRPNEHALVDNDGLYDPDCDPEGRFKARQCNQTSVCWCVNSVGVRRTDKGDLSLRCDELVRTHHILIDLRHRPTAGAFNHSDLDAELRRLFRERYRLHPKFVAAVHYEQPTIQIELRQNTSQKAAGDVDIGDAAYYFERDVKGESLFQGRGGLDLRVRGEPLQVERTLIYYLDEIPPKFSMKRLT
Outline: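 Biolayer interferometry: human or monkey Trop2 at 200 nM in PBS pH 7.4 with 0.1% BSA and 0.02% Tween 20 captured on AHC sensors, then 40 nM antibody associated 3 min and dissociated 5 min at 30 °C. Association, dissociation constants and affinity fitted from real-time signals.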

[3] = target: T3, monkey Trop2 on CHO-K1 cells (monkey, UniProt A0A2K5UE71 27-323); assay: flow cytometry on CHO-K1/monkey Trop2 cells
T3 construct: also called CHO-K1/monkey Trop2
T3 sequence: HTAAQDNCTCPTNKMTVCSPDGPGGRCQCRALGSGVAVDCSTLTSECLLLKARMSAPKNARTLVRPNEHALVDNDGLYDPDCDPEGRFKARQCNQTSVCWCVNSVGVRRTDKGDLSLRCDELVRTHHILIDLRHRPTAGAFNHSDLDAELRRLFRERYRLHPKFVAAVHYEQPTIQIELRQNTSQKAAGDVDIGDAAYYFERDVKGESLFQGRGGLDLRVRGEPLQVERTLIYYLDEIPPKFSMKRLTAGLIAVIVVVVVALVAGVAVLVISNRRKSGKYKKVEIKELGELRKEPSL
Protocol: CHO-K1/monkey Trop2 cells (Chempartner, Shanghai, China) and CHO-K1 blast cells were each digested with 3 mL of TrypLE, and the digestion was stopped with 7 mL of the corresponding medium. […] The cell solution was centrifuged, and the cells were washed once with PBS+0.5% BSA. […] The cells were washed once with PBS+0.5% BSA. The cells were incubated at 4° C. for 1 h in the dark with 100 μL of Alexa Fluor 488 goat anti-human IgG (Life technologies, #A-11013) diluted at 1:1000, and washed twice with PBS+0.5% BSA. The cells were resuspended in 200 μL of PBS+0.5% BSA. The suspension was centrifuged at 4° C. for 5 min at 2000 rpm and tested using a FACS verse flow cytometer or NovoCyte flow cytometer (ACEA Biosciences). All procedures were performed on ice.

[4] = target: T4, mouse Trop2-his protein (Sino Biological, #50922-M08H) (mouse, UniProt Q8BGV3 25-270); assay: ELISA, plate coated with mouse Trop2-his protein, anti-human IgG (H+L)-HRP, OD450 nm
T4 construct: bought protein; also called mouse Trop2 protein; not shown: his tag
T4 sequence (looked up): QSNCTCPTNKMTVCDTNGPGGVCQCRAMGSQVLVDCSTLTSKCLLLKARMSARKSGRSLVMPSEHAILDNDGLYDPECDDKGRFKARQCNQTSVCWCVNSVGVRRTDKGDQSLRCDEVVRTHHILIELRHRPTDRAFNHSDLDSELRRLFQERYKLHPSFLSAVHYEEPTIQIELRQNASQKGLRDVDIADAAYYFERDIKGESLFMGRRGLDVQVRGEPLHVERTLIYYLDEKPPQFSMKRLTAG
Protocol: An ELISA plate was coated with 100 μL of 1 μg/mL mouse Trop2-his protein (Sino Biological, #50922-M08H) in PBS at 4° C. overnight. The plate was blocked with 200 μL of PBST (PBS+0.05% tween 20)+2% BSA at 37° C. for 1 h. The plate was washed 4 times with PBST. 100 μL of Trop2 antibody diluted in a gradient (5-fold dilution, starting concentration: 33.33 nM) was added to the ELISA plate and the plate was incubated at 37° C. for 1 h. The plate was washed 4 times with PBST. 100 μL of anti-human IgG (H+L)-HRP (Sigma, #A8667) diluted in 1:4000 was added and the plate was incubated at 37° C. for 1 h. The plate was washed 4 times with PBST. 100 μL of TMB substrate (Invitrogen, #88-7025-88) was added and the plate was incubated at room temperature for 5 min, and then 50 μL of stop buffer (BBI life sciences, #E661006-0200) was added to stop the reaction. The OD450 nm reading was recorded using a microplate reader (Perkin Elmer, EnSpire).

- Kd [1]: 1.7 nM
- Response [1]: 0.366
- koff [1]: 0.000507 s⁻¹
- kon [1]: 298000 M⁻¹ s⁻¹
- Kd [2]: 3.66 nM
- Response [2]: 0.37
- koff [2]: 0.000732 s⁻¹
- kon [2]: 200000 M⁻¹ s⁻¹
- EC50 [3]: 2.25 nM
- Maximum MFI value [3]: 45500 MFI
- binding result [4]: no binding
B1: PR001162 (antibody, human IgG1, kappa, V domains shown)
VH: QVQLVESGGGVVQPGTSLRLSCVASGFTFSNDGMHWVRQAPGMGLEWVAIMWFDGGSKYYADSVKGRFTISRDNSKNTLYLQMNNLRAEDTAVYYCARDHPHYLGSGSFDYWGQGTLVTVSS
VL: EIVLTQSPATLSLSPGERATLSCRASQSVSSYLAWYQQKPGQAPRLLIYDASNRATGIPARFSGSGSGTDFTLTISSLQAEDVAVYYCQQYYSTPYTFGQGTKLEIKR
notes: fully human IgG1/kappa; also called antibody No. (23)
